{"source": "patent US20140017242A1", "about": "“ANTI-BRADYKININ B2 RECEPTOR (BKB2R) MONOCLONAL ANTIBODY” (Diamedica, Inc., priority 2010, published 2014)", "key": {"[1]": {"system": "Sprague Dawley Rats", "test": "Hyperinsulinemic-euglycemic clamp in Sprague Dawley rats", "type": "in vivo, rat", "protocol": "The hyperinsulinemic euglycemic clamp has been considered to as the standard in vivo technique for measuring insulin sensitivity effects of type 2 diabetes drugs. In this procedure, insulin is administered to a test animal to raise the insulin concentration, while glucose is infused to maintain euglycemia. The glucose infusion rate (GIR) needed to maintain euglycemia is a reflection of insulin action or improved insulin sensitivity. The bradykinin receptor agonist (anti-BKB2R) monoclonal antibody clone 5F12G1 was tested in a euglycemic clamp study to measure its ability to improve insulin sensitivity.\nHealthy young male Sprague Dawley Rats weighing 275-300 g were used for the study (Harlan Laboratory, Indianapolis, USA). The rats were maintained in a controlled environment at a temperature of 70-72° F., humidity 30-70%, with a photo cycle of 12 hours of light and 12 hours of dark. They were provided with TEKLAD™ 2018-Global 18% diet and drinking water ad libitum. After seven days of acclimatization, rats were grouped in groups of four.\nAnimals were anesthetized with an intraperitoneal injection of ketamine-plus-xylazine cocktail and the right jugular vein and left carotid artery were catheterized externally through an incision in the skin flap. The catheterized animals were allowed to recover for five days. After five days of recovery, animals were fasted for six hours and a 120-minute hyperinsulimic-euglycemic clamp was applied with continuous infusion of human insulin (Humulin, Eli Lilly, Indianapolis, Ind.) at a constant rate of 4mU/kg/minute. […] Both insulin and glucose were infused through catheterized right jugular vein and blood glucose levels were monitored from the catheterized carotid artery. Arterial blood glucose levels and plasma insulin levels were measured prior to infusion at t=−120, −90, −30, −15 and 0 minutes and then at every 10 minutes for 120 minutes (t=120), using a Glucose meter (Accu-Chek™ Roche Diagnostics, Indianapolis, Ind.) and a rat insulin ELISA kit. […]"}, "[2]": {"system": "HT-29", "test": "MTT Cell Proliferation Assay, HT-29", "type": "cell-based, human", "settings": "120 hours of exposure", "description": "This Example describes characterization of the cytotoxic activity of herein described anti-BKB2R monoclonal antibodies against a panel of cancer cell lines. BxPC-3 is a human adenocarcinoma cell line originally isolated from the pancreas (pancreatic cancer) (ATCC # CRL-1687; Tan et al., Cancer Invest. 4: 15-23, 1986. PubMed: 3754176). MV-4-11 is a human biphenotypic B myelomonocytic leukemia (mixed-lineage leukemia, MLL-AF4) cell line originally isolated from the peripheral blood (ATCC # CRL-959; Lange et al., Blood 70: 192-199, 1987. PubMed: 3496132). Hep G2 is a human hepatocellular carcinoma cell line isolated from the liver (liver cancer) (ATCC # HB-8065; Aden et al., Nature 282: 615-616, 1979. PubMed: 233137). RS4;11 is a human acute lymphoblastic leukemia (mixed-lineage leukemia, MLL-AF4) cell line isolated from the bone marrow (ATTC # CRL-1873) Stong et al., Blood 65: 21-31, 1985. PubMed: 3917311). HT-29 is a human colorectal adenocarcinoma (ATTC # HTB-38) cell line isolated from the colon (colon cancer). Fogh et al., J. Natl. Cancer Inst. 58: 209-214, 1977. PubMed: 833871). NUGC-4 is a human stomach carcinoma isolated from the stomach paragastiric lymph node (JCRB # JCRB0834; Akiyama et al., Jpn. J. Surg., 18: 438-446, 1988). […]\nThe anti-proliferative activity of test compounds against the indicated cell lines was evaluated in vitro using the ATCC's MTT Cell Proliferation Assay (Catalog No. 30-1010K). After the 120 hour incubation with drug (e.g., anti-BKB2R mAb or cisplatin), cell proliferation was measured by addition of MTT reagent to each well and incubation for an additional 4 hrs. […] Optical absorbance (570 nm) of the test wells was measured and then quantitated relative to control wells that received no drug. Results were expressed as percent inhibition versus compound concentration and graphed, as shown in FIGS. 19-25, for cell lines BxPC-3, MV-4;11, HepG2, RS-4;11, HT-29, NUGC-4, and PC-3, respectively."}}, "note": "Values joined by “and” are separate entries in the source; they are usually repeats but may differ in a detail not shown here. Equal values may be shown once."}
{"molecule": "5F12G1: murine monoclonal anti-BKB2R antibody (IgG2b,κ), VH comprising SEQ ID NO:1, VL comprising SEQ ID NO:2 (antibody, listed as Mus musculus, V domains shown) VH: EVKLEESGGGLVQPGGSMKLSCVVSGFTFSDYWMSWVRHSPEMGLEWVAEIRLKSDNYATHYAESVKGRFTISRDDSKSRLYLQINSLRGEDTGIYYCTRDYYAMEYWGQGTSVTVSS VL: DVVMTQTPLSLPVSLGDQASISCRSSQTIVHSNGKTYLEWYLQKPGQSPKLLIYKVSNRFSGVPDRFSGSGSGTEFTLKISRVETEDLGVYYCFQASHVPYTFGGGTKLEIK", "values": [{"measurement": "increase in total glucose infusion rate AUC compared to vehicle", "setting": "[1]; 0.5 mg/kg i.m. at t=−30 min, 120-minute clamp", "value": 179, "unit": "%"}, {"measurement": "peak increase of glucose infusion rate compared to vehicle", "setting": "[1]; 0.5 mg/kg i.m. at t=−30 min, t=60 min", "value": 291, "unit": "%"}, {"measurement": "Calculated Glucose Infusion Rate Area Under the Curve", "setting": "[1]; 0.5 mg/kg i.m., individual animals # 1-4", "value": "4560 mg/kg and 4317 mg/kg and 3243 mg/kg and 2685 mg/kg"}, {"measurement": "EC 50 Values (ng/ml) HT-29", "setting": "[2]", "value": 16000, "unit": "ng/mL"}]}
